These results are taken from patent EP2495257A2 (Abbott Laboratories, dated 2012).

The target of experiment [1] is T1, human IL-18 (human, UniProt Q14116 37-193). The experiment can be described thus: cell-based or functional assay.
For the next experiment, the target named is T2, human IL-12 (human, UniProt P29459 23-219; P29460 23-328).
T2 sequence (looked up) 1: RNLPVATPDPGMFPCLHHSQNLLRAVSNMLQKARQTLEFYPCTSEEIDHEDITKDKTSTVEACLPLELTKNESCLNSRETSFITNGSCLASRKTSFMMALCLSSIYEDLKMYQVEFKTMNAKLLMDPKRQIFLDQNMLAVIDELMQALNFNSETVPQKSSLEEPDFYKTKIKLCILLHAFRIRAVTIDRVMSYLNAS
T2 sequence (looked up) 2: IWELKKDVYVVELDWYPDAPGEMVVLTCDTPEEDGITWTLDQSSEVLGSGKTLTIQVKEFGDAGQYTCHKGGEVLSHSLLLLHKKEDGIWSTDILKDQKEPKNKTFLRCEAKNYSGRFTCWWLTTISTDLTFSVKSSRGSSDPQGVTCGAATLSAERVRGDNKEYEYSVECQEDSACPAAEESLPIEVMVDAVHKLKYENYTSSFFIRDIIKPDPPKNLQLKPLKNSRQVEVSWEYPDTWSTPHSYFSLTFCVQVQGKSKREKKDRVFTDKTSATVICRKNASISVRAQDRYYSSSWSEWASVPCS
The experiment can be described thus: cell-based or functional assay.

For experiment [2], the target named is T1, human IL-18. The experiment can be described thus: SPR (Biacore). In general terms: SPR reads the build-up and loss of mass on a sensor chip optically.

B1: DVD1812LL (anti-IL-18/IL-12 DVD-Ig, 18-12-C, long linker) (bispecific antibody, human IgG1, kappa)
heavy: not shown
light: EIVMTQSPATLSVSPGERATLSCRASESISSNLAWYQQKPGQAPRLFIYTASTRATDIPARFSGSGSGTEFTLTISSLQSEDFAVYYCQQYNNWPSITFGQGTRLEIKRTVAAPSVFIFPPQSVLTQPPSVSGAPGQRVTISCSGSRSNIGSNTVKWYQQLPGTAPKLLIYYNDQRPSGVPDRFSGSKSGTSASLAITGLQAEDEADYYCQSYDRYTHPALLFGTGTKVTVLGTVAAPSVFIFPPSDEQLKSGTASVVCLLNNFYPREAKVQWKVDNALQSGNSQESVTEQDSKDSTYSLSSTLTLSKADYEKHKVYACEVTHQGLSSPVTKSFNRGEC
Take B1: the “Potency (IC50, M), KG-1 bioassay” value with human IL-18 [1] is 7.8e-11 M.

B2: ABT-874 (fully human anti-human IL-12p40 mAb) (antibody, V domains shown)
VH: QVQLVESGGGVVQPGRSLRLSCAASGFTFSSYGMHWVRQAPGKGLEWVAFIRYDGSNKYYADSVKGRFTISRDNSKNTLYLQMNSLRAEDTAVYYCKTHGSHDNWGQGTMVTVSS
VL: QSVLTQPPSVSGAPGQRVTISCSGSRSNIGSNTVKWYQQLPGTAPKLLIYYNDQRPSGVPDRFSGSKSGTSASLAITGLQAEDEADYYCQSYDRYTHPALLFGTGTKVTVLG
As for B2, the “IC50 (M), IL-12-induced IFN-γ production by PHA blast cells” value with human IL-12 turned out to be 5e-12 M.

B3: ABT-325 (fully human anti-human IL-18 mAb) (antibody, V domains shown)
VH: EVQLVQSGTEVKKPGESLKISCKGSGYTVTSYWIGWVRQMPGKGLEWMGFIYPGDSETRYSPTFQGQVTISADKSFNTAFLQWSSLKASDTAMYYCARVGSGWYPYTFDIWGQGTMVTVSS
VL: not shown
For the molecule B3, in the experiment with human IL-18 [1], the “IC50 (M), KG-1 bioassay (IL-18-induced IFN-γ production)” value was 3e-10 M.

B4: DVD1812SL (anti-IL-18/IL-12 DVD-Ig, 18-12-C, short linker) (bispecific antibody, human IgG1, kappa)
heavy: not shown
light: EIVMTQSPATLSVSPGERATLSCRASESISSNLAWYQQKPGQAPRLFIYTASTRATDIPARFSGSGSGTEFTLTISSLQSEDFAVYYCQQYNNWPSITFGQGTRLEIKRTVAAPQSVLTQPPSVSGAPGQRVTISCSGSRSNIGSNTVKWYQQLPGTAPKLLIYYNDQRPSGVPDRFSGSKSGTSASLAITGLQAEDEADYYCQSYDRYTHPALLFGTGTKVTVLGTVAAPSVFIFPPSDEQLKSGTASVVCLLNNFYPREAKVQWKVDNALQSGNSQESVTEQDSKDSTYSLSSTLTLSKADYEKHKVYACEVTHQGLSSPVTKSFNRGEC
notes: also called DVD1812HC-SL / DVD1812LC-SL
For B4, in the experiment with human IL-18 [1], the “Potency (IC50, M), KG-1 bioassay” value was 4e-11 M. Moreover, in the experiment with human IL-18 [2], the Kd was 110 pM.

A word on the Kd: it is the constant that tells how readily two partners part at equilibrium.
